Source: the supplement of paper PMC7877785
± gives the uncertainty stated by the source.

Experiment: self-splicing fitness, log relative to wild type (ln ratio); higher = more splicing; Tetrahymena group I intron in knt gene, E. coli kanamycin selection, DiMSum; sequences stand for … in CUCUCU…GGAGGGAAAAGUUAUCAGGCAUGCACCUGGUAGCUAGUCUUUAAACCAAUAGAUUGCAUCGGUUUAAAAGGCAAGACCGUCAAAUUGCGGGAAAGGGGUCAACAGCCGUUCAGUACCAAGUCUCAGGGGAAACUUUGAGAUGGCCUUGCAAAGGGUAUGGUAAUAAGCUGACGGACAUGGUCCUAACCACGCAGCCAAGUCCUAAGUCAACAGAUCUUCUGUUGAUAUGGAUGCAGUUCACAGACUAAAUGUCGGUCGGGGAAGAUGUAUUCUUCUCAUAAGAUAUAGUCGGACCUCUCCUUAAUGGGAGCUAGCGGAUGAAGUGAUGCAACACUGGAGCCGCUGGGAACUAAUUUGUAUGCGAAAGUAUAUUGAUUAGUUUUGGAGUACUCGUGGUCG
Summary of the method: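 DiMSum derived fitness as the error-weighted combination of fold changes across replicates, kanamycin versus no kanamycin, normalised to wild type. E. coli BL21(DE3) held the library, which randomised all eight P1ex-region intron nucleotides within the knt kanamycin-resistance gene on pET-22b(+). Six replicate transformations grew overnight at 37°C or 30°C on LB agar with or without 25 μg/mL kanamycin, also containing 100 μg/mL carbenicillin, 50 μM IPTG and 0.2% rhamnose, and pooled colonies were amplicon-sequenced on an Illumina HiSeq 2500.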

Sequence | self-splicing fitness (ln) (30 °C) | self-splicing fitness (ln) (37 °C)
CACGAGCAAUAUUACGGGAA | -2.95 ± 0.2 | -3.1 ± 0.29
CACGAGCAAUAUUACGGUAG | -2.41 ± 0.12 | -2.18 ± 0.14
CACGAGCAAUAUUACGGUCG | -1.72 ± 0.14 | -0.457 ± 0.14
CACGAGCAAUAUUACGGUGG | -2.15 ± 0.11 | -2.33 ± 0.15
CACGAGCAAUAUUACGGUUC |  | -1.98 ± 0.34
CACGAGCAAUAUUACGUAGU | -3.22 ± 0.17 | -2.73 ± 0.26
CACGAGCAAUAUUACGUAUG | -3.54 ± 0.14 | -2.79 ± 0.16
CACGAGCAAUAUUACGUGAC | -2.72 ± 0.15 | -2.44 ± 0.15
CACGAGCAAUAUUACGUGCG | -3.73 ± 0.19 | -2.09 ± 0.15
CACGAGCAAUAUUACGUGUC | -3.87 ± 0.2 | -2.52 ± 0.14
CACGAGCAAUAUUACGUGUG | -3.48 ± 0.13 | -3.21 ± 0.17
CACGAGCAAUAUUACGUUUG | -3.57 ± 0.13 | -2.17 ± 0.13
CACUAGCAAUAUUACGAAGU | -2.82 ± 0.21 | -3.06 ± 0.29
CACUAGCAAUAUUACGAAUA | -3.16 ± 0.37 | -2.33 ± 0.18
CACUAGCAAUAUUACGACCG | 0.413 ± 0.1 | 0.573 ± 0.12
CACUAGCAAUAUUACGAGCU | -3.44 ± 0.18 | -2.75 ± 0.17
CACUAGCAAUAUUACGAUGU | -4.05 ± 0.37 | -1.63 ± 0.19
CACUAGCAAUAUUACGCCAA | -2.23 ± 0.16 | -2.89 ± 0.24
CACUAGCAAUAUUACGCUCC |  | -1.46 ± 0.2
CACUAGCAAUAUUACGGAAC |  | -1.93 ± 0.22
CACUAGCAAUAUUACGGAGC | -4.52 ± 0.28 | -2.8 ± 0.15
CACUAGCAAUAUUACGGAGG | -2.39 ± 0.1 | -0.627 ± 0.1
CACUAGCAAUAUUACGGCCU | -2.77 ± 0.2 | -1.94 ± 0.18
CACUAGCAAUAUUACGGGUA | -0.856 ± 0.057 | -0.188 ± 0.064
CACUAGCAAUAUUACGGUUA | -1.99 ± 0.12 | -0.466 ± 0.1

Sequence | self-splicing fitness (ln) (30 °C) | self-splicing fitness (ln) (37 °C)
CACUAGCAAUAUUACGUCGG | -1.25 ± 0.082 | 0.0907 ± 0.1
CACUAGCAAUAUUACGUGGU | -3.41 ± 0.15 | -2.88 ± 0.17
CACUAGCAAUAUUACGUUAU | -3.42 ± 0.22 | -3.52 ± 0.23
CAGAAGCAAUAUUACGAGAU | -3.23 ± 0.17 | -2.44 ± 0.23
CAGAAGCAAUAUUACGAGGG | -2.99 ± 0.23 | -1.18 ± 0.31
CAGAAGCAAUAUUACGAUAC |  | -1.81 ± 0.2
CAGAAGCAAUAUUACGAUGU | -3.37 ± 0.23 | -1.97 ± 0.2
CAGAAGCAAUAUUACGCACG | -0.596 ± 0.072 | -0.261 ± 0.08
CAGAAGCAAUAUUACGCACU | -2.13 ± 0.14 | -1.36 ± 0.14
CAGAAGCAAUAUUACGCAUG | -3.89 ± 0.21 | -2.44 ± 0.17
CAGAAGCAAUAUUACGCGCA | -1.55 ± 0.17 | -0.337 ± 0.12
CAGAAGCAAUAUUACGCUCA | -1.61 ± 0.11 | 0.0994 ± 0.11
CAGAAGCAAUAUUACGCUCG | -1.31 ± 0.11 | -0.994 ± 0.15
CAGAAGCAAUAUUACGGAAG | -1.65 ± 0.077 | -1.35 ± 0.095
CAGAAGCAAUAUUACGGAGG | -1.91 ± 0.099 | -1.2 ± 0.1
CAGAAGCAAUAUUACGGGAA | -3.21 ± 0.23 | -1.37 ± 0.25
CAGAAGCAAUAUUACGGGCG | -0.315 ± 0.089 | -0.0188 ± 0.11
CAGAAGCAAUAUUACGGGUA | -2.8 ± 0.16 | -2.25 ± 0.13
CAGAAGCAAUAUUACGUAGU | -4.18 ± 0.24 | -1.97 ± 0.17
CAGAAGCAAUAUUACGUCAU |  | -2.9 ± 0.25
CAGAAGCAAUAUUACGUCGU | -4.88 ± 0.36 | -1.3 ± 0.14
CAGAAGCAAUAUUACGUGCC | -4.04 ± 0.28 | -2.74 ± 0.3
CAGAAGCAAUAUUACGUGUC | -3.9 ± 0.25 | -4 ± 0.27
CAGCAGCAAUAUUACGAAGC | -4.28 ± 0.31 | 
CAGCAGCAAUAUUACGACAU | -3.505 ± 0.021 | -1.82 ± 0.034

Sequence | self-splicing fitness (ln) (30 °C) | self-splicing fitness (ln) (37 °C)
CAGCAGCAAUAUUACGAUAC | -3.52 ± 0.33 | -3.45 ± 0.4
CAGCAGCAAUAUUACGCAAG | -1.53 ± 0.092 | -0.332 ± 0.11
CAGCAGCAAUAUUACGCAAU | -3.18 ± 0.24 | -1.29 ± 0.15
CAGCAGCAAUAUUACGCAGC | -4.33 ± 0.32 | -2.3 ± 0.28
CAGCAGCAAUAUUACGCCGA | -1.81 ± 0.12 | -0.864 ± 0.091
CAGCAGCAAUAUUACGCGCU | -3.39 ± 0.21 | -2.45 ± 0.16
CAGCAGCAAUAUUACGCGGG | -2.78 ± 0.17 | -2.31 ± 0.2
CAGCAGCAAUAUUACGGACC |  | -1.84 ± 0.34
CAGCAGCAAUAUUACGGCAA | -1.35 ± 0.1 | -1.45 ± 0.097
CAGCAGCAAUAUUACGGCGC | -2.93 ± 0.35 | -1.51 ± 0.2
CAGCAGCAAUAUUACGGCUU | -0.00706 ± 0.07 | 0.453 ± 0.088
CAGCAGCAAUAUUACGGGAA | -3.17 ± 0.33 | -1.58 ± 0.16
CAGCAGCAAUAUUACGGUGC | -2.99 ± 0.17 | -2.1 ± 0.28
CAGCAGCAAUAUUACGUAAU | -2.34 ± 0.16 | -1.91 ± 0.15
CAGCAGCAAUAUUACGUACA | -2.34 ± 0.15 | -1.97 ± 0.16
CAGCAGCAAUAUUACGUCGU | -3.42 ± 0.18 | -0.9 ± 0.09
CAGCAGCAAUAUUACGUGGC | -3.81 ± 0.25 | -1.67 ± 0.23
CAGCAGCAAUAUUACGUUAA | -3.01 ± 0.11 | -1.66 ± 0.1
CAGCAGCAAUAUUACGUUAC |  | -2.34 ± 0.27
CAGCAGCAAUAUUACGUUAU | -3.77 ± 0.19 | -2.93 ± 0.15
CAGCAGCAAUAUUACGUUGU | -2.88 ± 0.1 | -1.52 ± 0.13
CAGGAGCAAUAUUACGACUA | 0.224 ± 0.31 | -0.98 ± 0.34
CAGGAGCAAUAUUACGAUUA | -3.38 ± 0.31 | -2.37 ± 0.3
CAGGAGCAAUAUUACGCAGC | -2.14 ± 0.18 | -2.55 ± 0.33
CAGGAGCAAUAUUACGCUUG | -3.59 ± 0.21 | -2.48 ± 0.3

Sequence | self-splicing fitness (ln) (30 °C) | self-splicing fitness (ln) (37 °C)
CAGGAGCAAUAUUACGGCAG | -1.41 ± 0.083 | -1.27 ± 0.09
CAGGAGCAAUAUUACGGCUU | -3.93 ± 0.23 | -2.15 ± 0.21
CAGGAGCAAUAUUACGGGUC | -2.84 ± 0.19 | -2.92 ± 0.21
CAGGAGCAAUAUUACGGUAU | -3.42 ± 0.15 | -2.86 ± 0.16
CAGGAGCAAUAUUACGUACC | -2.36 ± 0.45 | 
CAGGAGCAAUAUUACGUCAC |  | -1.92 ± 0.44
CAGGAGCAAUAUUACGUCCA | -2.02 ± 0.16 | -1.08 ± 0.24
CAGGAGCAAUAUUACGUGAA | -3.52 ± 0.38 | -3.2 ± 0.43
CAGGAGCAAUAUUACGUGAU | -4.53 ± 0.46 | -1.95 ± 0.23
CAGGAGCAAUAUUACGUGCA | -3.17 ± 0.21 | -2.6 ± 0.34
CAGUAGCAAUAUUACGAAAU | -2.86 ± 0.15 | -2.54 ± 0.21
CAGUAGCAAUAUUACGACCG | 0.558 ± 0.16 | -0.0835 ± 0.2
CAGUAGCAAUAUUACGACGA | -1.39 ± 0.13 | -0.446 ± 0.13
CAGUAGCAAUAUUACGAGAU | -4.27 ± 0.46 | -1.9 ± 0.27
CAGUAGCAAUAUUACGAUUC | -3.11 ± 0.22 | -2.27 ± 0.26
CAGUAGCAAUAUUACGCACC | -2.03 ± 0.26 | -1.61 ± 0.43
CAGUAGCAAUAUUACGCAGU | -3.52 ± 0.34 | -2.33 ± 0.22
CAGUAGCAAUAUUACGCCCU |  | -1.3 ± 0.32
CAGUAGCAAUAUUACGGAAU | -3.7 ± 0.27 | -2.55 ± 0.18
CAGUAGCAAUAUUACGGCAU | -4.45 ± 0.27 | -1.78 ± 0.18
CAGUAGCAAUAUUACGGCCA | -1.17 ± 0.16 | -1.11 ± 0.21
CAGUAGCAAUAUUACGGGAG | -2.37 ± 0.18 | -1.91 ± 0.27
CAGUAGCAAUAUUACGGGCU | -3.56 ± 0.26 | -1.21 ± 0.15
